In PMC6553876 (PLoS Pathogens, 2019):

Molecular target: T1, DEN4-80E (Dengue virus type 4, strain H241 …, UniProt Q58HT7)
T1 construct: Envelope (E) protein of dengue virus serotype 4, strain H241, truncated form: 80% of the N-terminal of the E protein; also called DEN-80E of DENV4; truncated envelope protein of DENV4; source: recombinant E protein, component of the tetravalent dengue subunit vaccine V180 (Merck and Co. Inc.)
Assay: BLI; Octet RED96 epitope binning: first mAb (30 ug/ml) captured on protein A sensor for 600 s, blocking antibody (200 ug/ml) 300 s, DEN4-80E loaded at 30 ug/ml for 300 s, then second mAb (d462, 5H2, d559, d182)
Details: both partners purified

T1 sequence (Q58HT7 whole entry, looked up, the tested form may be a part): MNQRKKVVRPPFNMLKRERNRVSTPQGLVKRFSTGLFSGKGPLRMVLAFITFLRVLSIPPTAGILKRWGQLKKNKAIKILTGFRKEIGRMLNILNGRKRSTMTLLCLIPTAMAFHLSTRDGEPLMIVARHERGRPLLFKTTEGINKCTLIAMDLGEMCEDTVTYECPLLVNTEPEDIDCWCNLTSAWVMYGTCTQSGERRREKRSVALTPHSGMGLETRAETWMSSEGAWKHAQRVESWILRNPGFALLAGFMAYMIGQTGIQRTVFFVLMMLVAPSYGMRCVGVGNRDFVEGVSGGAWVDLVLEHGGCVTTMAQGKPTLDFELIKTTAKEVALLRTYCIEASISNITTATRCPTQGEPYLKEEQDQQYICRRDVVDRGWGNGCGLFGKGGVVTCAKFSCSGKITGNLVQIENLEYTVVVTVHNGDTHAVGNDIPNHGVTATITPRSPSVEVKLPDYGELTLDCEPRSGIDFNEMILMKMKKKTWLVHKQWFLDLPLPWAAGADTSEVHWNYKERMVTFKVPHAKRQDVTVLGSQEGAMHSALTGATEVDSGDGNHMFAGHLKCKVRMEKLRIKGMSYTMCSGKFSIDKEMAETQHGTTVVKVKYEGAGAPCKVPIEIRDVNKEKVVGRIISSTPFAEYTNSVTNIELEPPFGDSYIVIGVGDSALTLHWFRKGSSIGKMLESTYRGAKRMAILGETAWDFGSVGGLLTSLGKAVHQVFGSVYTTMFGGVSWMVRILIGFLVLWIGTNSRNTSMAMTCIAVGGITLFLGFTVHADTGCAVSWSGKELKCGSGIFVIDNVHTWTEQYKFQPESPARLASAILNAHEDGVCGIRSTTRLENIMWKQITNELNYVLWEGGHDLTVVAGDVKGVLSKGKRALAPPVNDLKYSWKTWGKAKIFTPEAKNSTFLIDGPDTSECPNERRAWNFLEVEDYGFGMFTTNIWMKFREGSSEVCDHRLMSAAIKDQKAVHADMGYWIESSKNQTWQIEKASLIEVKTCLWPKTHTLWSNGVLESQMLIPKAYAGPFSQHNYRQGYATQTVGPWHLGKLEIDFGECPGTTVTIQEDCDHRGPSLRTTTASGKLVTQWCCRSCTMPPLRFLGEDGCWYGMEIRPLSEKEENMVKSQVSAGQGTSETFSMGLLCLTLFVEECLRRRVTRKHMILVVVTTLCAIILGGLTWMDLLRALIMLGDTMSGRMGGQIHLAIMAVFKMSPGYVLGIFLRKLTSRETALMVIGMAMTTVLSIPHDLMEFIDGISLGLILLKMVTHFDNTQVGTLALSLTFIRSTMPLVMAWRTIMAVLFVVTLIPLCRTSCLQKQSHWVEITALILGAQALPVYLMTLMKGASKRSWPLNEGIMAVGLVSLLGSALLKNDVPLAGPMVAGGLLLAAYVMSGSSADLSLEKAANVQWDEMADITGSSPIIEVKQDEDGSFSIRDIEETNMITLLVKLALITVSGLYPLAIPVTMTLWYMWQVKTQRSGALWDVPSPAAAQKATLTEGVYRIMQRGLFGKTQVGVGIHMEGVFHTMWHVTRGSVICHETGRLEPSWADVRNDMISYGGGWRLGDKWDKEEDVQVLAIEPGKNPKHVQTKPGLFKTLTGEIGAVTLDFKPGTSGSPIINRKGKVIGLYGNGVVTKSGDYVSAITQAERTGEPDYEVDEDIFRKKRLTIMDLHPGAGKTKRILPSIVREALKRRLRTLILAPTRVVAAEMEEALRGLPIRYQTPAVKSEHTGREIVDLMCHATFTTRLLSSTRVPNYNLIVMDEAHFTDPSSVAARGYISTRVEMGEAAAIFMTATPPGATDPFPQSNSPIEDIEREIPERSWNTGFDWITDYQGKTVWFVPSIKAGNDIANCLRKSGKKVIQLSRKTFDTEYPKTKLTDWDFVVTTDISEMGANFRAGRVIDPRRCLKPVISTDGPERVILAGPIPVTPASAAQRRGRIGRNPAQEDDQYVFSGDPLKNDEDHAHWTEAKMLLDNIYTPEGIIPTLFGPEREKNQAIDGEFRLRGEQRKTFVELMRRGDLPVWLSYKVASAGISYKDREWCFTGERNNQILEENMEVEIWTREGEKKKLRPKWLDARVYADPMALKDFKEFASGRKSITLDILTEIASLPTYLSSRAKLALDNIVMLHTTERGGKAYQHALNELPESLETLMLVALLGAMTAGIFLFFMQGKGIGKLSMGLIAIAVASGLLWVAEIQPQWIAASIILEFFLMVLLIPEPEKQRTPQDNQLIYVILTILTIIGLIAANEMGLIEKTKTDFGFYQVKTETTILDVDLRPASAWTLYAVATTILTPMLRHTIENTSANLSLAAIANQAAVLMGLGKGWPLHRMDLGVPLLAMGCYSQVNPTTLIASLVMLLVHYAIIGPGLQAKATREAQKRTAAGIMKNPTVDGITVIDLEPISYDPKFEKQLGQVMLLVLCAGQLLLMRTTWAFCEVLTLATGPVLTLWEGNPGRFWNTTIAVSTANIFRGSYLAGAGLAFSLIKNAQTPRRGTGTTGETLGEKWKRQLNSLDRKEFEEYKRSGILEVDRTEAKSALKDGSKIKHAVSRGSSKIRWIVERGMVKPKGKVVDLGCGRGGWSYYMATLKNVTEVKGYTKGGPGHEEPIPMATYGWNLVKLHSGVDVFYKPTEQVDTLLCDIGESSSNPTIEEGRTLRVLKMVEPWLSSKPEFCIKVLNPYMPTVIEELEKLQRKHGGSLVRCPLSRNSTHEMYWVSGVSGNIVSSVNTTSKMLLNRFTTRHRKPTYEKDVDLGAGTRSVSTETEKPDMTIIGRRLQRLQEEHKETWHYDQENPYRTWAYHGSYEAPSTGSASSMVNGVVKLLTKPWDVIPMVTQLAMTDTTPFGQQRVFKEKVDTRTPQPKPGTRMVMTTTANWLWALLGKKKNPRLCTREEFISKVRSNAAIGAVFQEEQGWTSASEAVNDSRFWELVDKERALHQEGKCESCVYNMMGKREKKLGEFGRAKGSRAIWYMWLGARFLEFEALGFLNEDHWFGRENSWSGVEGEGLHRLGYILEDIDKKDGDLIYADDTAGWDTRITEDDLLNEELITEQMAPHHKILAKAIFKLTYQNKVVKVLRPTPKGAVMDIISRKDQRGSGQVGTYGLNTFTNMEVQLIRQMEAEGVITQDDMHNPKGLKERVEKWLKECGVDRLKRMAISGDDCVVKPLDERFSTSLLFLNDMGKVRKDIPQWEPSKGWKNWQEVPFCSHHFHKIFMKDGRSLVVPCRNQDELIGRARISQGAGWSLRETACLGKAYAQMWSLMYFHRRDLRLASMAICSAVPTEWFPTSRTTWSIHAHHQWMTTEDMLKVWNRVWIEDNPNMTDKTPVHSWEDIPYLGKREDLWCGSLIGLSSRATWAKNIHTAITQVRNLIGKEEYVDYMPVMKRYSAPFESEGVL

B1: chimpanzee antibody 5H2 (antibody, V domains shown)
VH: EVQLLESGPGLVKPSETLSLTCTVSGGSISDFYWSWLRQSPGKGLEWIGYAHSRVSAYYNPSLKSRVTISVDTSKNQISLRLSAVTAADTALYYCARQGTGTTGVSEDSFDLWGQGTKVIVSL
VL: ELQMTQSPSSLSASVGDRVTITCRASQDISIRLNWYQQKPGKAPKLLIYDASTLESGVPSRFSGSGSGTDFTLTISSLQPEDFATYYCQQFNSYPLTFGGGTKVEIK
notes: also called mAb 5H2
binding result: binds
